The text below walks through data of PMC3901001.

For this test, the target named is full-length human α isoform of CaMKII (CaMKIIα), wild type (human) (UniProt Q9UQM7). Put plainly: single-molecule TIRF colocalisation; mixed with ATP in the absence of Ca2+/CaM (37°C by the DLS legend).
Chain of UniProt Q9UQM7 (Q9UQM7 whole entry, canonical isoform): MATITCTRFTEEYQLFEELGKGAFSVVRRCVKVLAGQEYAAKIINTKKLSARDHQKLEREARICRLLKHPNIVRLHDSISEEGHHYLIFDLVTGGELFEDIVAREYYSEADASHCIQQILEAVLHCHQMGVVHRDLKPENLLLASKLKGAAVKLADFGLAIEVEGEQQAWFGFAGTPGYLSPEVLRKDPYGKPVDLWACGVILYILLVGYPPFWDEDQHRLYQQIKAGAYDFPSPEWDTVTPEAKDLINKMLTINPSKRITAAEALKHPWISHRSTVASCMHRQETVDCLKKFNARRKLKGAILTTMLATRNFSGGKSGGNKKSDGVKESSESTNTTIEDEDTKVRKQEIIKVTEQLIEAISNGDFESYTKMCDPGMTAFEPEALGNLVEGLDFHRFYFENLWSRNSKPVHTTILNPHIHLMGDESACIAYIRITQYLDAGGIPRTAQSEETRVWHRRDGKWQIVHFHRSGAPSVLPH

Substance “CaMKII^T286D, constitutively active mutant of full-length human CaMKIIα (enzyme)” returned a percent colocalisation (plateau) of 60%.
